Test results reported in the supplement of paper PMC10065799, “High-throughput profiling of sequence recognition by tyrosine kinases and SH2 domains using bacterial peptide display” (eLife, 2023).

What was measured:
SHP2-C SH2 = assay: SH2 binding enrichment of the phosphorylated peptide, bacterial display (enrichment ratio); higher = better substrate or ligand; peptides without Tyr show the background
c-Src SH2 = assay: as above
Grb2 SH2 = Grb2 SH2 (UniProt P62993); assay: as above
Hck = Hck (UniProt P08631); assay: phosphorylation enrichment, bacterial display (enrichment ratio); higher = better substrate or ligand; peptides without Tyr show the background
FGFR1 = FGFR1 (UniProt P11362); assay: as above
Fer (mouse) = assay: as above
EPHB2 = EPHB2 (UniProt P29323); assay: as above
MERTK = MERTK (UniProt Q12866); assay: as above
AncSZ = assay: as above
Jak2 = Jak2 (UniProt O60674); assay: as above
FGFR3 = FGFR3 (UniProt P22607); assay: as above
Fes = Fes (UniProt P07332); assay: as above
EPHB1 = EPHB1 (UniProt P54762); assay: as above
Fyn = Fyn (UniProt P06241); assay: as above
c-Abl (mouse) = assay: as above
c-Src = assay: as above
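Wherever SH2 binding enrichment of the phosphorylated peptide, bacterial display is given: peptide library displayed on the E. coli surface as eCPX fusions, selected cells deep-sequenced, score is each peptide's frequency after selection divided by its frequency in the input.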
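Wherever phosphorylation enrichment, bacterial display is given: 11-residue human phosphosite peptides and single-mutation variants displayed on the E. coli surface, counted by deep sequencing, each peptide's frequency after selection divided by its frequency in the unselected input library; frequency after pTyr selection over input frequency; kinase dosed for 20-30% of maximal phosphorylation in three min.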

Sequence of Fes (P07332 whole entry, looked up): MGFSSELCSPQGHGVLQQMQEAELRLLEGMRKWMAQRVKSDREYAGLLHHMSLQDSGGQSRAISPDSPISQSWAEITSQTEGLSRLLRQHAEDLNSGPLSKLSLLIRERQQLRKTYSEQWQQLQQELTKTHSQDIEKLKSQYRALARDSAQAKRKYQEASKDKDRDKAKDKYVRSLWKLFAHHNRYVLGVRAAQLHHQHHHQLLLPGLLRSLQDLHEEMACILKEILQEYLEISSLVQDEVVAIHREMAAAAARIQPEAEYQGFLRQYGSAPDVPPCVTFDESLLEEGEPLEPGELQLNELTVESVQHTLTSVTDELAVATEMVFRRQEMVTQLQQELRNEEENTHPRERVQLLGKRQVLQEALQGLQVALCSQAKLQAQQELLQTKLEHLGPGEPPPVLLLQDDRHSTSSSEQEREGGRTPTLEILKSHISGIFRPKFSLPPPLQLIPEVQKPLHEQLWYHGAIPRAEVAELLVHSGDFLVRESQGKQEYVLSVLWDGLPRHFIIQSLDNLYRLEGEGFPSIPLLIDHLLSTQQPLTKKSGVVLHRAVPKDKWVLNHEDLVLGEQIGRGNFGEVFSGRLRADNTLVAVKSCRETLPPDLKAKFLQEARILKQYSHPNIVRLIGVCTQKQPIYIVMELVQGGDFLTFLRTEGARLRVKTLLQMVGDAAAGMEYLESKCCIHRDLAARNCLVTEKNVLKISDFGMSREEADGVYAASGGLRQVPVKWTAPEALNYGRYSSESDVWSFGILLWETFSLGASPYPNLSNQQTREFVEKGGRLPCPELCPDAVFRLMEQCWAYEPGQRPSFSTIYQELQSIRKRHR
Sequence of Hck (P08631 whole entry, looked up): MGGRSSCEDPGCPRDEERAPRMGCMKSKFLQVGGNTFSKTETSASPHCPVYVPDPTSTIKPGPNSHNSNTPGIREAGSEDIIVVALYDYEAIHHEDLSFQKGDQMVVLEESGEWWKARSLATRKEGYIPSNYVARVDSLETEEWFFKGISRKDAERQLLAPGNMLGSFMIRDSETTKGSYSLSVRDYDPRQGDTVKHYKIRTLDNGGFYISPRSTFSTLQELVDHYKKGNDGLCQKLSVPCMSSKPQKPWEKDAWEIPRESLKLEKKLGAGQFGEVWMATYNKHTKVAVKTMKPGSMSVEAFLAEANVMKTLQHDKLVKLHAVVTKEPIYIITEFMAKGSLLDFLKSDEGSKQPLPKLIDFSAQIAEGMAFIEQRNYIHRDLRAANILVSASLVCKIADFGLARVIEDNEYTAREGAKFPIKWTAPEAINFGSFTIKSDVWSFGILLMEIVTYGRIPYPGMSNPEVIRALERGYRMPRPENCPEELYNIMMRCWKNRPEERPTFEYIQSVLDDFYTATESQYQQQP
Sequence of Jak2 (O60674 whole entry, looked up): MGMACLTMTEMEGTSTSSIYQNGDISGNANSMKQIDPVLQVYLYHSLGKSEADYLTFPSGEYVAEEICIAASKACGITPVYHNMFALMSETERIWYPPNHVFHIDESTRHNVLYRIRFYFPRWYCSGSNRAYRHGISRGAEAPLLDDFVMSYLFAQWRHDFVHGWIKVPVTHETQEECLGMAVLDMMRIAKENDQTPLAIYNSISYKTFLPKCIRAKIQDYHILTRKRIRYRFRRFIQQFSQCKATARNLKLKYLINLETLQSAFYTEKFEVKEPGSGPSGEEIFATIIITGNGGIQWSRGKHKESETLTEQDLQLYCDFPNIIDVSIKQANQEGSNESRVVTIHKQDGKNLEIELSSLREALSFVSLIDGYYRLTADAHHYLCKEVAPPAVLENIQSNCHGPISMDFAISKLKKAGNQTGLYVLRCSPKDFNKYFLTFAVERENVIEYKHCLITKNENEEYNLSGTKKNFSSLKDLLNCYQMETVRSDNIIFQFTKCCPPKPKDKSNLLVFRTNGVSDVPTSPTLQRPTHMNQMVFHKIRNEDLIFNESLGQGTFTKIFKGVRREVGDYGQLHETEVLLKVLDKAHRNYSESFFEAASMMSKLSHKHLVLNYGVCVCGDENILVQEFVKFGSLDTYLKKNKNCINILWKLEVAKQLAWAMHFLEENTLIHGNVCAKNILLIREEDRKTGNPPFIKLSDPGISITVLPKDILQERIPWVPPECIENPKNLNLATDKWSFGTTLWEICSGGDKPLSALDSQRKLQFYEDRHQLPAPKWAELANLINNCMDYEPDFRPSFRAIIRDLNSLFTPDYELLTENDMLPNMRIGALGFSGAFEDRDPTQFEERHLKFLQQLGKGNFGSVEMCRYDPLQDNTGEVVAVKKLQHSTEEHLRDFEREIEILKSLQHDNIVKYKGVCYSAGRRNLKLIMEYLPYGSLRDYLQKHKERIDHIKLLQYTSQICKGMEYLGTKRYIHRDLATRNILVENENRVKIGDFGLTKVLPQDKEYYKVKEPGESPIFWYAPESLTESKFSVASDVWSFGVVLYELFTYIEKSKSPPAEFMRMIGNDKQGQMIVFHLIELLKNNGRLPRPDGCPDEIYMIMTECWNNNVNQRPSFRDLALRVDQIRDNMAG
Sequence of FGFR1 (P11362 whole entry, looked up): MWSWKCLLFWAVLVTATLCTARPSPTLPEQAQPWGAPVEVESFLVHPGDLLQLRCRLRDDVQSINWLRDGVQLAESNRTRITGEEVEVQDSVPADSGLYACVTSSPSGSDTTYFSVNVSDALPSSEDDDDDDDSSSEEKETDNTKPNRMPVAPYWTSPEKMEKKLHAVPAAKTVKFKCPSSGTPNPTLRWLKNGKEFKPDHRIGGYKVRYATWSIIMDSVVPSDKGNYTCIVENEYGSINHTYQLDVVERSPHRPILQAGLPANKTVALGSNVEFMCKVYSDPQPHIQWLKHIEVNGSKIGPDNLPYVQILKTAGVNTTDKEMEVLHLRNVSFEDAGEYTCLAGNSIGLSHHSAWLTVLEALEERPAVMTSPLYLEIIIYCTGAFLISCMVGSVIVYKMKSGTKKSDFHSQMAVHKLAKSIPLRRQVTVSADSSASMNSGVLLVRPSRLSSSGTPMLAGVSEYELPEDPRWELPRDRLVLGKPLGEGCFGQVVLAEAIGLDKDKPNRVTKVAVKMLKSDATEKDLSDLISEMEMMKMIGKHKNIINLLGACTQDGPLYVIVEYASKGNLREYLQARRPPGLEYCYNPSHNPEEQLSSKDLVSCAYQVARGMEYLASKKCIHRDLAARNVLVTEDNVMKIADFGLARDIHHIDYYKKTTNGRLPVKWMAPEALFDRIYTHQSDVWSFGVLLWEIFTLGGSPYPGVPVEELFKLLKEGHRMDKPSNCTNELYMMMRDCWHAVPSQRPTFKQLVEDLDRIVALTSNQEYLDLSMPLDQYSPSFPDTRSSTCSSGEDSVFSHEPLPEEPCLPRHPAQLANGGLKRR
Sequence of EPHB2 (P29323 whole entry, looked up): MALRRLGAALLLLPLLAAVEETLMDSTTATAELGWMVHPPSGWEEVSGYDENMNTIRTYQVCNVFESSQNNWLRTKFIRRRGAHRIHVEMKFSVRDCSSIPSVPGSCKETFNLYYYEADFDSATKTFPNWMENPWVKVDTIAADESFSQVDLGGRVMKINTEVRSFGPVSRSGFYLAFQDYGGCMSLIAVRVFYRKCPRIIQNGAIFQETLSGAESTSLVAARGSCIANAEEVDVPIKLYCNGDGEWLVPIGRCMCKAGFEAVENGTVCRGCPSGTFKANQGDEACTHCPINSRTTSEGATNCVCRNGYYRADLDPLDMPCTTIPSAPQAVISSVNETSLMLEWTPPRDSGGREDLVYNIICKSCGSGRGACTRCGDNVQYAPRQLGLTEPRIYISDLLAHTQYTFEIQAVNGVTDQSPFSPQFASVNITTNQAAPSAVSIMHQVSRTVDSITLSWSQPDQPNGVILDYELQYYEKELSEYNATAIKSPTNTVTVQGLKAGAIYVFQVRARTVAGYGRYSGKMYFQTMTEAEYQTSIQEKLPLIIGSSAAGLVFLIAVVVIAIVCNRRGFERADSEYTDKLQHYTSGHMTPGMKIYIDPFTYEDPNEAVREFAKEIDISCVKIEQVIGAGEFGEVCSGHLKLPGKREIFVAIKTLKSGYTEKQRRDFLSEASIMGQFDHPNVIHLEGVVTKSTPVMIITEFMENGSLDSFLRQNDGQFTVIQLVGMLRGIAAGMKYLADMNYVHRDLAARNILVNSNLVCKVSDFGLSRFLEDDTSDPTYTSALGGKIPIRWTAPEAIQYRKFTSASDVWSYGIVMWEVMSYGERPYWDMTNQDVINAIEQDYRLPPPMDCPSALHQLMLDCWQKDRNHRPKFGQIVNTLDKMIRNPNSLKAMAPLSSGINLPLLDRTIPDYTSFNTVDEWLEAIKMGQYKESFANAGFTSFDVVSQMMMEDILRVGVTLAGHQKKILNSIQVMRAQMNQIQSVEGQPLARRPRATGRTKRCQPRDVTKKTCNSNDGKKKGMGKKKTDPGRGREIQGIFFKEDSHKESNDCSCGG
Sequence of Fyn (P06241 whole entry, looked up): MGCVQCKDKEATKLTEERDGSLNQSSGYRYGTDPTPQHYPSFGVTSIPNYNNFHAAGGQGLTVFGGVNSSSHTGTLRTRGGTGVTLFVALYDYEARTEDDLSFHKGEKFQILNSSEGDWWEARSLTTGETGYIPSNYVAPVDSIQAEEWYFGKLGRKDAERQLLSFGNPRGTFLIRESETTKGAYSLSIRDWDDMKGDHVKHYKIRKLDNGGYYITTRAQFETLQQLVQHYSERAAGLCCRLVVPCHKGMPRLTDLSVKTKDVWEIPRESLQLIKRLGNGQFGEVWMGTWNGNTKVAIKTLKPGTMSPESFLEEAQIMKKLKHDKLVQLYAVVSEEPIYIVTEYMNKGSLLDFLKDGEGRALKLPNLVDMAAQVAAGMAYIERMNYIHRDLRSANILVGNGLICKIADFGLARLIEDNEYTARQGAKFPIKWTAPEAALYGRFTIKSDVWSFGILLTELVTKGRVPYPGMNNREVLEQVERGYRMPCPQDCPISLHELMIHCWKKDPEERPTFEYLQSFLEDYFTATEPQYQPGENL

Row | Sequence | SH2 binding enrichment (SHP2-C SH2) | SH2 binding enrichment (c-Src SH2) | SH2 binding enrichment (Grb2 SH2) | phosphorylation enrichment (Hck) | phosphorylation enrichment (FGFR1) | phosphorylation enrichment (Fer (mouse)) | phosphorylation enrichment (EPHB2) | phosphorylation enrichment (MERTK) | phosphorylation enrichment (AncSZ) | phosphorylation enrichment (Jak2) | phosphorylation enrichment (FGFR3) | phosphorylation enrichment (Fes) | phosphorylation enrichment (EPHB1) | phosphorylation enrichment (Fyn) | phosphorylation enrichment (c-Abl (mouse)) | phosphorylation enrichment (c-Src)
1 | TLNHQYDFTFH [CSNK1A1_Y292_D297H_YF] | 0.717 | 4.74 | 1.01 | 0.559 | 0.557 | 0.685 | 0.624 | 0.557 | 1.02 | 0.738 | 0.785 | 1.17 | 0.759 | 0.588 | 0.735 | 0.58
2 | TLQSMFGCDVG [HLA-B_Y123_Y123F] | 0.684 | 0.541 | 0.79 | 0.489 | 0.515 | 0.523 | 0.85 | 0.511 | 0.989 | 0.852 | 0.7 | 1.09 | 0.657 | 0.648 | 0.637 | 0.44
3 | TRLAQYDSNSK [BMX_Y216_S212R] | 0.829 | 0.637 | 0.962 | 0.42 | 0.527 | 0.445 | 0.402 | 0.682 | 0.713 | 0.811 | 0.41 | 0.684 | 0.399 | 0.44 | 0.776 | 0.643
4 | TRSFDYMEGGD [FGF7_Y58_YF] | 0.791 | 0.576 | 1.07 | 0.599 | 0.617 | 0.416 | 0.544 | 0.613 | 1.03 | 1.05 | 0.674 | 1.18 | 0.487 | 0.535 | 0.761 | 0.446
5 | TRYDEYLEVTK [MAP1A_Y2217_H2214Y] | 0.506 | 1.02 | 0.777 | 0.539 | 0.901 | 0.592 | 0.884 | 0.425 | 1.31 | 1.16 | 0.872 | 1.25 | 0.98 | 0.519 | 0.909 | 0.538
6 | TSSAGYRAAEG [COL6A3_Y543] | 0.653 | 0.485 | 0.903 | 0.379 | 0.573 | 0.429 | 0.406 | 0.365 | 0.524 | 0.365 | 0.641 | 0.629 | 0.505 | 0.422 | 0.309 | 0.316
7 | TTSQLYDAVPI [PDPK1_Y9] | 0.848 | 0.485 | 0.728 | 11.5 | 0.611 | 19.6 | 17.1 | 13 | 1.28 | 0.849 | 0.786 | 1.41 | 13.4 | 10.2 | 1.31 | 7.33

The next lines start with results.

Row | SH2 binding enrichment (SHP2-C SH2) | SH2 binding enrichment (c-Src SH2) | SH2 binding enrichment (Grb2 SH2) | Sequence | phosphorylation enrichment (Hck) | phosphorylation enrichment (FGFR1) | phosphorylation enrichment (Fer (mouse)) | phosphorylation enrichment (EPHB2) | phosphorylation enrichment (MERTK) | phosphorylation enrichment (AncSZ) | phosphorylation enrichment (Jak2) | phosphorylation enrichment (FGFR3) | phosphorylation enrichment (Fes) | phosphorylation enrichment (EPHB1) | phosphorylation enrichment (Fyn) | phosphorylation enrichment (c-Abl (mouse)) | phosphorylation enrichment (c-Src)
8 | 0.728 | 0.456 | 0.889 | TGEKLYQRKEF [ZNF283_Y627] | 0.543 | 0.539 | 0.437 | 0.379 | 0.477 | 0.813 | 0.59 | 0.489 | 0.847 | 0.62 | 0.526 | 0.507 | 0.447
9 | 0.82 | 0.56 | 0.677 | TGFRPYVCPFD [YY1_Y383_D380Y_YF] | 0.691 | 1.1 | 0.892 | 0.978 | 0.849 | 1.54 | 1.12 | 1.66 | 0.975 | 2.1 | 0.4 | 1.29 | 0.458
10 | 0.62 | 0.363 | 0.705 | TGNGFYFRVFS [MYBPC3_Y1136_I1131T_YF] | 0.456 | 0.433 | 0.543 | 0.517 | 0.36 | 1.1 | 1.32 | 0.763 | 1.33 | 0.65 | 0.393 | 0.929 | 0.374
11 | 0.766 | 0.593 | 0.721 | TRNRDYDDIDD [TTYH2_Y424] | 0.527 | 0.562 | 0.438 | 0.563 | 0.507 | 1.02 | 0.734 | 0.665 | 0.917 | 0.497 | 0.451 | 0.621 | 0.448
12 | 1.58 | 1.04 | 1.41 | TRSCKYLLLSM [NF1_Y491_Y489C] | 0.549 | 0.53 | 0.416 | 0.621 | 0.512 | 0.823 | 0.864 | 0.552 | 0.954 | 0.521 | 0.441 | 0.614 | 0.39
13 | 0.655 | 0.471 | 0.704 | TTEHIYGDKFF [UBA7_Y524_N527K] | 2.15 | 0.597 | 0.502 | 0.477 | 0.459 | 0.722 | 0.648 | 0.563 | 0.762 | 0.468 | 4.92 | 0.728 | 4.65
14 | 0.992 | 0.653 | 1.24 | TTSQPYRCLCS [USH2A_Y534] | 0.523 | 0.552 | 0.509 | 0.587 | 0.781 | 0.951 | 0.931 | 0.707 | 0.941 | 0.473 | 0.557 | 1.07 | 0.562
15 | 0.576 | 0.438 | 0.848 | TTTQAYRVNER [PRKN_Y391_D394N] | 0.397 | 0.421 | 0.447 | 0.31 | 0.4 | 0.496 | 0.531 | 0.386 | 0.514 | 0.445 | 0.324 | 0.492 | 0.473
16 | 0.456 | 1.28 | 0.516 | TVLEPYTDPYY [ZC3H18_Y367_A368T] | 0.649 | 1 | 0.433 | 0.541 | 0.524 | 1.2 | 0.805 | 0.797 | 0.857 | 0.611 | 0.656 | 0.568 | 0.845
